Experimental data from paper PMC4066579 (Nature methods, 2009).
Where two headings read alike, the source gives them in different places.

How the values were obtained:
native MS [1] = molecular target: the molecule itself; assay: native MS
native MS [2] = molecular target: the molecule itself; assay: native MS; remark: listed apart in the source

B1: MexB (natural protein, Pseudomonas aeruginosa strain PAO1, UniProt P52002 1-1046, looked up)
chain: MSKFFIDRPIFAWVIALVIMLAGGLSILSLPVNQYPAIAPPAIAVQVSYPGASAETVQDTVVQVIEQQMNGIDNLRYISSESNSDGSMTITVTFEQGTDPDIAQVQVQNKLQLATPLLPQEVQRQGIRVTKAVKNFLMVVGVVSTDGSMTKEDLSNYIVSNIQDPLSRTKGVGDFQVFGSQYSMRIWLDPAKLNSYQLTPGDVSSAIQAQNVQISSGQLGGLPAVKGQQLNATIIGKTRLQTAEQFENILLKVNPDGSQVRLKDVADVGLGGQDYSINAQFNGSPASGIAIKLATGANALDTAKAIRQTIANLEPFMPQGMKVVYPYDTTPVVSASIHEVVKTLGEAILLVFLVMYLFLQNFRATLIPTIAVPVVLLGTFGVLAAFGFSINTLTMFGMVLAIGLLVDDAIVVVENVERVMAEEGLSPREAARKSMGQIQGALVGIAMVLSAVFLPMAFFGGSTGVIYRQFSITIVSAMALSVIVALILTPALCATMLKPIEKGDHGEHKGGFFGWFNRMFLSTTHGYERGVASILKHRAPYLLIYVVIVAGMIWMFTRIPTAFLPDEDQGVLFAQVQTPPGSSAERTQVVVDSMREYLLEKESSSVSSVFTVTGFNFAGRGQSSGMAFIMLKPWEERPGGENSVFELAKRAQMHFFSFKDAMVFAFAPPSVLELGNATGFDLFLQDQAGVGHEVLLQARNKFLMLAAQNPALQRVRPNGMSDEPQYKLEIDDEKASALGVSLADINSTVSIAWGSSYVNDFIDRGRVKRVYLQGRPDARMNPDDLSKWYVRNDKGEMVPFNAFATGKWEYGSPKLERYNGVPAMEILGEPAPGLSSGDAMAAVEEIVKQLPKGVGYSWTGLSYEERLSGSQAPALYALSLLVVFLCLAALYESWSIPFSVMLVVPLGVIGALLATSMRGLSNDVFFQVGLLTTIGLSAKNAILIVEFAKELHEQGKGIVEAAIEACRMRLRPIVMTSLAFILGVVPLAISTGAGSGSQHAIGTGVIGGMVTATVLAIFWVPLFYVAVSTLFKDEASKQQASVEKGQ
- stoichiometry N (native MS [1]): 3

B2: MacB (natural protein, UniProt P75831 1-648, looked up)
chain: MTPLLELKDIRRSYPAGDEQVEVLKGISLDIYAGEMVAIVGASGSGKSTLMNILGCLDKATSGTYRVAGQDVATLDADALAQLRREHFGFIFQRYHLLSHLTAEQNVEVPAVYAGLERKQRLLRAQELLQRLGLEDRTEYYPAQLSGGQQQRVSIARALMNGGQVILADEPTGALDSHSGEEVMAILHQLRDRGHTVIIVTHDPQVAAQAERVIEIRDGEIVRNPPAIEKVNVTGGTEPVVNTVSGWRQFVSGFNEALTMAWRALAANKMRTLLTMLGIIIGIASVVSIVVVGDAAKQMVLADIRSIGTNTIDVYPGKDFGDDDPQYQQALKYDDLIAIQKQPWVASATPAVSQNLRLRYNNVDVAASANGVSGDYFNVYGMTFSEGNTFNQEQLNGRAQVVVLDSNTRRQLFPHKADVVGEVILVGNMPARVIGVAEEKQSMFGSSKVLRVWLPYSTMSGRVMGQSWLNSITVRVKEGFDSAEAEQQLTRLLSLRHGKKDFFTWNMDGVLKTVEKTTRTLQLFLTLVAVISLVVGGIGVMNIMLVSVTERTREIGIRMAVGARASDVLQQFLIEAVLVCLVGGALGITLSLLIAFTLQLFLPGWEIGFSPLALLLAFLCSTVTGILFGWLPARNAARLDPVDALARE
- stoichiometry N (native MS [1]): 2

B3: EmrE-EFE(1–113), unmodified (free N-terminal methionine) (natural protein)
chain: MNPYIYLGGAILAEVIGTTLMKFSEGFTRLWPSVGTIICYCASFWLLAQTLAYIPTGIAYAIWSGVGIVLISLLSWGFFGQRLDLPAIIGMMLICAGVLIINLLSRSTPHEFE
- stoichiometry N (native MS [2]): 2

B4: EmrE-EFE(1–113), N-terminally formylated (natural protein)
chain: MNPYIYLGGAILAEVIGTTLMKFSEGFTRLWPSVGTIICYCASFWLLAQTLAYIPTGIAYAIWSGVGIVLISLLSWGFFGQRLDLPAIIGMMLICAGVLIINLLSRSTPHEFE
modifications: formylation at an N-terminal methionine
- stoichiometry N (native MS [2]): 2
